How the values were obtained:
MS2 coat protein [1] = experiment: apparent KD of MS2 coat protein; designed switch direction (-1 OFF switch, 1 ON switch): 1; higher = weaker reporter binding; settings: Eterna round: R98
Protocol: (§1)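 RNA-MaP: designed FMN/MS2 RNA switches (84 nt design region) are transcribed on-chip within common flanks and titrated with SNAP-549-labelled MS2 coat protein (about 1-3000 nM) in 100 mM Tris pH 7.5, 80 mM KCl, 4 mM MgCl2, without or with 200 uM FMN. Median apparent KD per design; activation ratio = KD,OFF / KD,ON.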

MS2 coat protein [2] = experiment: apparent KD of MS2 coat protein; designed switch direction (-1 OFF switch, 1 ON switch): -1; higher = weaker reporter binding; settings: Eterna round: R98
Protocol: as §1

MS2 coat protein [3] = experiment: apparent KD of MS2 coat protein; higher = weaker reporter binding; settings: Eterna round: R101
Protocol: as §1

GCGGAGGGCACAGGAUAUCGUCCUUAGUUGGUACGAGAAGGGUGGCGCUGCCACAUGAGGAUCACCCAUGUGCCCAAACUAUAG [Eresgeises]
apparent KD of MS2 coat protein (MS2 coat protein [1]; input ligand: FMN 200 uM): 639 nM | apparent KD of MS2 coat protein (MS2 coat protein [1]; input ligand: none): 211 nM

GUAGCUAUCGGAGGAUAUUCAUAGCGGAAACGCACAUGAGGAUCACCCAUGUGGCGAAAGCCUUGGGAGAAGGCCGAUAGCUAC [jl-sng2-2.30 Eli mod]
apparent KD of MS2 coat protein (MS2 coat protein [1]; input ligand: FMN 200 uM): 17.7 nM | apparent KD of MS2 coat protein (MS2 coat protein [1]; input ligand: none): 99.3 nM

CAUAUAUGGUGAGGAUAUGCAAAGGAUCACCUUGUAGAAGGCAUCAGGGUAGAAGGUGCAAGGAUCACCUGUAAGGAUAUAUCC [pwkr2 ssNG1 DX.26]
apparent KD of MS2 coat protein (MS2 coat protein [1]; input ligand: FMN 200 uM): 412 nM | apparent KD of MS2 coat protein (MS2 coat protein [1]; input ligand: none): 1630 nM

ACAUACAUUCGAGGAUAUCGGUGAACAAAUUAACGAGAAGGCGAUAUAAUUUUUAAUCUUAUAAACAUGAGGAUCACCCAUGUA [JR_SSNG1_Sub001]
apparent KD of MS2 coat protein (MS2 coat protein [1]; input ligand: FMN 200 uM): 17 nM | apparent KD of MS2 coat protein (MS2 coat protein [1]; input ligand: none): 20.9 nM

AAAAUAAAGGCAGGAUAUACAUGAAUAAAUAAAAUAAUAUAAAAUAAAACAUGAGGAUCACCCAUGUAGAAGGGCCAAAAUAAA [LRO022_Exclusion NG 2]
apparent KD of MS2 coat protein (MS2 coat protein [2]; input ligand: FMN 200 uM): 187 nM | apparent KD of MS2 coat protein (MS2 coat protein [2]; input ligand: none): 83.3 nM

GUAGCUAUCGCAGGAUAUCCUCAGGCGAAAGCCACAUGAGGAUCACCCAUGUAAUUAAAGAAAUUGGAGAAGGGCGAUAGCUAC [jl-sng2-2.38 Eli mod]
apparent KD of MS2 coat protein (MS2 coat protein [1]; input ligand: FMN 200 uM): 36.4 nM | apparent KD of MS2 coat protein (MS2 coat protein [1]; input ligand: none): 571 nM

AAAACAUGAGGAUCACCCAUGUAUAGAUCGAUUAUUAGGAGUGAGGAUAUGCAAGUUAUAAGGAAGCAGAAGGCACAGGGAAAA [JR_SSNG3_Sub073]
apparent KD of MS2 coat protein (MS2 coat protein [1]; input ligand: FMN 200 uM): 23.2 nM | apparent KD of MS2 coat protein (MS2 coat protein [1]; input ligand: none): 23.9 nM

AGCGGUGCGUGUGUUGUGACACAUGAGGAUCACCCAUGUAGGAAGGAUAUGCAGUUGGGCACGCGGCAGAAGGUCCGACAUGGA [Riuscein]
apparent KD of MS2 coat protein (MS2 coat protein [2]; input ligand: FMN 200 uM): 58.6 nM | apparent KD of MS2 coat protein (MS2 coat protein [2]; input ligand: none): 529 nM

GUAGCAUACCGAGGAUAUUCAUAUAAUAAAUAAACAUGAGGACCACCCAUGUGGCGAAAGCCUUGGGAGAAGGCGGAAUGCUAC [Xeonanis 20 - mod55 1]
apparent KD of MS2 coat protein (MS2 coat protein [1]; input ligand: FMN 200 uM): 70.9 nM

GGAUCCAUCACAGGAUAUGCUGGACUUUGUCCAGCAGAAGGGUGAAACAUGAGGAUCACCCAUGUAAAGGAUCCUAUAUUUAAU [Denovo 26]
apparent KD of MS2 coat protein (MS2 coat protein [1]; input ligand: FMN 200 uM): 34.3 nM | apparent KD of MS2 coat protein (MS2 coat protein [1]; input ligand: none): 291 nM

GGACUCACUUGAGGAUAUCGAGUGGAAUACACUCGAGAAGGCAGGGAAACCUGAGGAUCACCCAGGUAAGAGUCCAAUAAUAAA [Same State NG1 - A3C, U17G Submission 2C]
apparent KD of MS2 coat protein (MS2 coat protein [1]; input ligand: FMN 200 uM): 18.7 nM | apparent KD of MS2 coat protein (MS2 coat protein [1]; input ligand: none): 43.4 nM

AAGAUACUUACAGGAUAUAGGGCAGAGGGUGCCCUAGAAGGGUGAACAUGAGGAUCACCCAUGUAUGUAUCUGAUUAGAAGGCA [Lezaraoren]
apparent KD of MS2 coat protein (MS2 coat protein [1]; input ligand: FMN 200 uM): 119 nM | apparent KD of MS2 coat protein (MS2 coat protein [1]; input ligand: none): 73.2 nM

GGACUCACUUGAGGAUAUCGAGUGGAUAACACUCGAGAAGGCAGGAAAACCUGAGGAUCACCCAGGUAAGAGUCCAAUAAUAAU [Same State NG1 - A3C, U17G Submission 3D]
apparent KD of MS2 coat protein (MS2 coat protein [1]; input ligand: FMN 200 uM): 14.4 nM | apparent KD of MS2 coat protein (MS2 coat protein [1]; input ligand: none): 13.2 nM

GCUGCUAUCGCAGGAUAUUACAUGGGAAAGAAUACAUGAGGAUCACCCAUGUAAAAGAUCGUAAAUAAGAAGGGCGAUAGCAGC [Lame State 5 - Jieux - Same State NG 2]
apparent KD of MS2 coat protein (MS2 coat protein [1]; input ligand: FMN 200 uM): 353 nM | apparent KD of MS2 coat protein (MS2 coat protein [1]; input ligand: none): 329 nM

GCGUGUGGAUCAGGAUAUUACAUGAGGAUCACCCAUGUAGGCAUGAGGGUCACCCGUGUUGUGUGUAAGAAGGGAUCGCCCGUG [Exclusion2]
apparent KD of MS2 coat protein (MS2 coat protein [2]; input ligand: FMN 200 uM): 74.1 nM | apparent KD of MS2 coat protein (MS2 coat protein [2]; input ligand: none): 46 nM

UUCACGGCGGGAAUAAGUGGUACUCAGGAUAUGGACUAGAAAUACAUGAGGAUCACCCAUGUGUUCCAGAAGGGAGGGCAUGCG [Tisorabea] (puzzle (switch architecture): Small Loop Same State NG 3)
apparent KD of MS2 coat protein (MS2 coat protein [3]; input ligand: FMN 200 uM): 10.3 nM | apparent KD of MS2 coat protein (MS2 coat protein [3]; input ligand: none): 45.6 nM

GAUUACUUCACAGGAUAUAAAAUAAAGCAGAUUUUAGAAGGGUGAGCCUCGUCGACCGCGACAUGAGGAUCACCCAUGUUGUGU [Bitetiqu]
apparent KD of MS2 coat protein (MS2 coat protein [1]; input ligand: FMN 200 uM): 50.8 nM | apparent KD of MS2 coat protein (MS2 coat protein [1]; input ligand: none): 29.3 nM

ACAGGUCGUGAGAAGGCGGAAAGCACCGUCGAAAGACGGUGCAAUUAAGAUCUUCGAGGAUCACCCGAGGAUAUCACGACCUGA [#SharedSequence - IExNG2: 15] (puzzle (switch architecture): Inverted Exclusion NG 2)
apparent KD of MS2 coat protein (MS2 coat protein [3]; input ligand: FMN 200 uM): 654 nM | apparent KD of MS2 coat protein (MS2 coat protein [3]; input ligand: none): 75.1 nM

CCCUUUAGAAAAGGGACAUGAGGAUCACCCAUGUAGGCUGCACAGGAUAUCGAUCGGAGGCGGUACGAGAAGGGUGACGUCAUU [Zaarqu]
apparent KD of MS2 coat protein (MS2 coat protein [1]; input ligand: FMN 200 uM): 64 nM | apparent KD of MS2 coat protein (MS2 coat protein [1]; input ligand: none): 52.3 nM

GCUUGCGACGCAGGAUAUGGGUGCCUAAACACGAGGAUCACCCGUGUACAGGAAGCGAAAAGCUCUCAGAAGGGCGUCGCAGGC [United States 8 - Jieux - Same State NG 2]
apparent KD of MS2 coat protein (MS2 coat protein [1]; input ligand: FMN 200 uM): 17.2 nM | apparent KD of MS2 coat protein (MS2 coat protein [1]; input ligand: none): 22.6 nM

GCGGCCCGGGAGAAGGACAUGAGGAUCACCCAUGUCGCCGGGCCCGGGAAACCGGGCCCGGCCAUGUAGGAUAUCCCGGGCCGC [#This is a good prank] (puzzle (switch architecture): Inverted Exclusion NG 2)
apparent KD of MS2 coat protein (MS2 coat protein [3]; input ligand: FMN 200 uM): 5.14 nM | apparent KD of MS2 coat protein (MS2 coat protein [3]; input ligand: none): 4.59 nM

AAGCACGAAGAUUAUUAUGAAUAAACAUGAGGAUCACCCAUGUAGGAUAUCGACUCGAAUAGAGUCGAGAAGGACAAAACGUGC [#BasePairInsertion1E] (puzzle (switch architecture): Exclusion NG 3)
apparent KD of MS2 coat protein (MS2 coat protein [3]; input ligand: FMN 200 uM): 11.6 nM | apparent KD of MS2 coat protein (MS2 coat protein [3]; input ligand: none): 6.96 nM

CAGUCGACCAUAACAAGGUCGACUGACUUCUGAGGAUCACCCAGAAGGCGUCACCUAAUAGGUGACGAGGAUAUGGAGUGUAAA [#SharedSequence IExNG# - 7] (puzzle (switch architecture): Inverted Exclusion NG 3)
apparent KD of MS2 coat protein (MS2 coat protein [3]; input ligand: FMN 200 uM): 92.7 nM | apparent KD of MS2 coat protein (MS2 coat protein [3]; input ligand: none): 32 nM

AAAACAUGAGGAUCACCCAUGUAUAGAACGGUUAAUAAAAGUGAGGAUAUACUAAAUUUUAUAUAGUAGAAGGCACUGGGUACU [JR_SSNG3_Sub010]
apparent KD of MS2 coat protein (MS2 coat protein [1]; input ligand: FMN 200 uM): 24.7 nM | apparent KD of MS2 coat protein (MS2 coat protein [1]; input ligand: none): 17.1 nM

UGUAAUAUUAUAGGAUAUGGAUACGAUACGUAUCCAGAAGGGUGAUUAAACUAUAAUCUAUACAUGAGGAUCACCCAUGUUUAU [AtrosYaY10] (puzzle (switch architecture): Same State NG 1)
apparent KD of MS2 coat protein (MS2 coat protein [3]; input ligand: FMN 200 uM): 157 nM | apparent KD of MS2 coat protein (MS2 coat protein [3]; input ligand: none): 173 nM

GCAGCUAAUGCAGGAUAUCAGCACGUGUAGUGCUGAGAAGGGCACAUGAGGAUACCGACUGUGAUCAAUUAAUAUUAAUGCUGC [salish99#hingeEx3_55-58_003] (puzzle (switch architecture): Exclusion NG 1)
apparent KD of MS2 coat protein (MS2 coat protein [3]; input ligand: FMN 200 uM): 6.87 nM | apparent KD of MS2 coat protein (MS2 coat protein [3]; input ligand: none): 9.43 nM
